Results: PMC9376891

Biological target: Rae1(31-368);Nup98(157-213) GLEBS (human;human, UniProt P78406;P52948 31-368;157-213, |)
Assay: EMSA
Settings: protein: recombinant;recombinant; tags: untagged;N-terminal His tag removed by TEV; copies: 1;1; label: 5' FAM; single strand

Sequence of Rae1(31-368);Nup98(157-213) GLEBS (P78406 31-368, chain 1 of 2): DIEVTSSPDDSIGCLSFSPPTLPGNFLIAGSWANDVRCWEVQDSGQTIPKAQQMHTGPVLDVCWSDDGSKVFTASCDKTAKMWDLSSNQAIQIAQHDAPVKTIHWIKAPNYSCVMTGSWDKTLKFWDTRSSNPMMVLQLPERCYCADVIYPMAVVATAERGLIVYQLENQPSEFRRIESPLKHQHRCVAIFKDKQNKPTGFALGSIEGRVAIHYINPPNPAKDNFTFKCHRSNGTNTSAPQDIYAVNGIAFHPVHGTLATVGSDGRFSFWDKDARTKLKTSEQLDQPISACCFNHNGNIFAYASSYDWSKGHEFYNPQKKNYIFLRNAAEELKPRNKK
Sequence of Rae1(31-368);Nup98(157-213) GLEBS (P52948 157-213, chain 2 of 2): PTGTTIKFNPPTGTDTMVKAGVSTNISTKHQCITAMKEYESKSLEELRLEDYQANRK

B1: 10-mer poly(U) ssRNA (ssRNA)
RNA: UUUUUUUUUU
**Q.** Does B1 bind?
**A.** binds
